# B1: native (cleaved) Staphylococcus aureus dihydroorotase (PyrC) (enzyme)
# chain: GPMKLIKNGKVLQNGELQQADILIDGKVIKQIAPAIEPSNGVDIIDAKGHFVSPGFVDVHVHLREPGGEYKETIETGTKAAARGGFTTVCPMPNTRPVPDSVEHFEALQKLIDDNAQVRVLPYASITTRQLGKELVDFPALVKEGAFAFTDDGVGVQTASMMYEGMIEAAKVNKAIVAHCEDNSLIYGGAMHEGKRSKELGIPGIPNICESVQIARDVLLAEAAGCHYHVCHVSTKESVRVIRDAKRAGIHVTAEVTPHHLLLTEDDIPGNNAIYKMNPPLRSTEDREALLEGLLDGTIDCIATDHAPHARDEKAQPMEKAPFGIVGSETAFPLLYTHFVKNGDWTLQQLVDYLTIKPCETFNLEYGTLKENGYADLTIIDLDSEQEIKGEDFLSKADNTPFIGYKVYGNPILTMVEGEVKFEGDK
# B2: His-SUMO tagged Staphylococcus aureus dihydroorotase (PyrC) (enzyme)
# chain: LEVLFQGPMKLIKNGKVLQNGELQQADILIDGKVIKQIAPAIEPSNGVDIIDAKGHFVSPGFVDVHVHLREPGGEYKETIETGTKAAARGGFTTVCPMPNTRPVPDSVEHFEALQKLIDDNAQVRVLPYASITTRQLGKELVDFPALVKEGAFAFTDDGVGVQTASMMYEGMIEAAKVNKAIVAHCEDNSLIYGGAMHEGKRSKELGIPGIPNICESVQIARDVLLAEAAGCHYHVCHVSTKESVRVIRDAKRAGIHVTAEVTPHHLLLTEDDIPGNNAIYKMNPPLRSTEDREALLEGLLDGTIDCIATDHAPHARDEKAQPMEKAPFGIVGSETAFPLLYTHFVKNGDWTLQQLVDYLTIKPCETFNLEYGTLKENGYADLTIIDLDSEQEIKGEDFLSKADNTPFIGYKVYGNPILTMVEGEVKFEGDK
# Target: the molecule itself
# Test: SEC
row,Protein,stoichiometry N
1,B1,2
2,B2,2

# — paper PMC5663463 (Protein expression and purification, 2012)
